{"source": "paper doi:10.1101/2023.06.26.546551", "about": "“Unmasking Crucial Residues in Adipose Triglyceride Lipase (ATGL) for Co-Activation with Comparative Gene Identification-58 (CGI-58)” (bioRxiv, 2023)", "experiment_in_all_cases": "cell-based or functional assay", "key": {"[1]": {"target": "T1, smt3-mATGL288-StrepII (mouse adipose triglyceride lipase truncated after D288), wild type (mouse, UniProt Q8BJ56 1-288)", "T1 sequence (looked up)": "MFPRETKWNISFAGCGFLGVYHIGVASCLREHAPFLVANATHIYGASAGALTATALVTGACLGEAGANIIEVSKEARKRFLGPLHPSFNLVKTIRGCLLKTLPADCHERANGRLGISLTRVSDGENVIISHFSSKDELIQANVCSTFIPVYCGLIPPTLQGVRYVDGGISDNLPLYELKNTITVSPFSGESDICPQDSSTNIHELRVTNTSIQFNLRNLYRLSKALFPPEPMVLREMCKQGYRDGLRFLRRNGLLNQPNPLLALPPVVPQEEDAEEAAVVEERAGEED"}, "[2]": {"target": "T2, smt3-mATGL288-StrepII N209A (mouse, UniProt Q8BJ56 1-288, N209A)", "T2 sequence (looked up)": "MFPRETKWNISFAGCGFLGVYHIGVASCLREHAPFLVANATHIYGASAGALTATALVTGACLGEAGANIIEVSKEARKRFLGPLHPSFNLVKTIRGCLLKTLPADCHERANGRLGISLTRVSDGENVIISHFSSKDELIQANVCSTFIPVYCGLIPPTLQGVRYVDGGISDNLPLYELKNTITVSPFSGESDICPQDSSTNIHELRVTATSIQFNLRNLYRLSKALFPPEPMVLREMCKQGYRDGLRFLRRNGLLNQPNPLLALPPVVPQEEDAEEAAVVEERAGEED"}, "[3]": {"target": "T3, smt3-mATGL288-StrepII I212A (mouse, UniProt Q8BJ56 1-288, I212A)", "T3 sequence (looked up)": "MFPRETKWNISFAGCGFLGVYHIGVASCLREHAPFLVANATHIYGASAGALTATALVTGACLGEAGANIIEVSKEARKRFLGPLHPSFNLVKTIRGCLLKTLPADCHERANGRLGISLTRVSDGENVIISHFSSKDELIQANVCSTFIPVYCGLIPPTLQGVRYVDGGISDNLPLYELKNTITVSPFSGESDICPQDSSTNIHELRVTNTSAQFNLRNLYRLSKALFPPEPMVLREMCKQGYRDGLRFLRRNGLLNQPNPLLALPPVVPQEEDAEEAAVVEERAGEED"}, "[4]": {"target": "T4, smt3-mATGL288-StrepII I212S (mouse, UniProt Q8BJ56 1-288, I212S)", "T4 sequence (looked up)": "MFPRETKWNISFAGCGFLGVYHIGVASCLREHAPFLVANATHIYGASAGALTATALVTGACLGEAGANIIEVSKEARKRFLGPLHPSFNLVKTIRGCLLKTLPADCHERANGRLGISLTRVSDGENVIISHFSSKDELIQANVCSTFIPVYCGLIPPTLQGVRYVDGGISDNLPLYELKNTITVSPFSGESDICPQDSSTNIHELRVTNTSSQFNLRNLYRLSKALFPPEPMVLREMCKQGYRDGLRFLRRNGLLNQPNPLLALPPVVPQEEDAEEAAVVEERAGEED"}, "[5]": {"target": "T5, smt3-mATGL288-StrepII N215A (mouse, UniProt Q8BJ56 1-288, N215A)", "T5 sequence (looked up)": "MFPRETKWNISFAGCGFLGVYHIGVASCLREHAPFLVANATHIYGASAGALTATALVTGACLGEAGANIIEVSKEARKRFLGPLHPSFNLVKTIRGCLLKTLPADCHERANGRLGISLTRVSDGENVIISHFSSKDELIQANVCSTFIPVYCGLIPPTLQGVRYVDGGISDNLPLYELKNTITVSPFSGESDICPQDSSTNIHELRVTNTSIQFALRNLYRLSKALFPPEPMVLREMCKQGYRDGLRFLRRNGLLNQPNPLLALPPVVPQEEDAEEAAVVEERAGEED"}}, "data": [{"binder": "smt3-mCGI-58-His6 (mouse comparative gene identification-58) (natural protein, UniProt Q9DBL9 1-351, looked up) MKAMAAEEEVDSADAGGGSGWLTGWLPTWCPTSTSHLKEAEEKMLKCVPCTYKKEPVRISNGNRIWTLMFSHNISSKTPLVLLHGFGGGLGLWALNFEDLSTDRPVYAFDLLGFGRSSRPRFDSDAEEVENQFVESIEEWRCALRLDKMILLGHNLGGFLAAAYSLKYPSRVSHLILVEPWGFPERPDLADQERPIPVWIRALGAALTPFNPLAGLRIAGPFGLSLVQRLRPDFKRKYSSMFEDDTVTEYIYHCNVQTPSGETAFKNMTIPYGWAKRPMLQRIGGLHPDIPVSVIFGARSCIDGNSGTSIQSLRPKSYVKTIAILGAGHYVYADQPEEFNQKVKEICHTVD", "values": [{"measurement": "EC50 of mCGI-58 for co-activation of the TG hydrolase activity of mATGL288 (25 ug bacterial lysate, purified mCGI-58 up to 2300 nM)", "setting": "[1]", "result": 178, "unit": "nM"}, {"measurement": "EC50 of mCGI-58 for co-activation of the TG hydrolase activity of mATGL288 N209A (25 ug bacterial lysate, purified mCGI-58 up to 2300 nM)", "setting": "[2]", "result": "~500", "unit": "nM"}, {"measurement": "EC50 of mCGI-58 for co-activation of the TG hydrolase activity of mATGL288 I212A (25 ug bacterial lysate, purified mCGI-58 up to 2300 nM)", "setting": "[3]", "result": "~500", "unit": "nM"}, {"measurement": "EC50 of mCGI-58 for co-activation of the TG hydrolase activity of mATGL288 I212S (25 ug bacterial lysate, purified mCGI-58 up to 2300 nM)", "setting": "[4]", "result": "~200", "unit": "nM"}, {"measurement": "EC50 of mCGI-58 for co-activation of the TG hydrolase activity of mATGL288 N215A (25 ug bacterial lysate, purified mCGI-58 up to 2300 nM)", "setting": "[5]", "result": "~200", "unit": "nM"}]}]}
